From patent US20250059559A1 (FLAGSHIP PIONEERING INNOVATIONS V, published 2025) come the findings set out here.

Data set [1] concerns the molecule itself. Put plainly: self-assembly; negative-stain EM.
Data set [2] concerns the molecule itself. As to the kind of experiment: self-assembly; heparin and SEC purification, EM.
Data set [3] deals with the molecule itself. Put plainly: self-assembly; EM.

B1: Ring 2 ORF1 fused to an N-terminal HIS6-tag (HIS-ORF1) (other)
chain: MPYYYRRRRYNYRRPRWYGRGWIRRPFRRRFRRKRRVRPTYTTIPLKQWQPPYKRTCYIKGQDCLIYYSNLRLGMNSTMYEKSIVPVHWPGGGSFSVSMLTLDALYDIHKLCRNWWTSTNQDLPLVRYKGCKITFYQSTFTDYIVRIHTELPANSNKLTYPNTHPLMMMMSKYKHIIPSRQTRRKKKPYTKIFVKPPPQFENKWYFATDLYKIPLLQIHCTACNLQNPFVKPDKLSNNVTLWSLNTISIQNRNMSVDQGQSWPFKILGTQSFYFYFYTGANLPGDTTQIPVADLLPLTNPRINRPGQSLNEAKITDHITFTEYKNKFTNYWGNPFNKHIQEHLDMILYSLKSPEAIKNEWTTENMKWNQLNNAGTMALTPFNEPIFTQIQYNPDRDTGEDTQLYLLSNATGTGWDPPGIPELILEGFPLWLIYWGFADFQKNLKKVTNIDTNYMLVAKTKFTQKPGTFYLVILNDTFVEGNSPYEKQPLPEDNIKWYPQVQYQLEAQNKLLQTGPFTPNIQGQLSDNISMFYKFYFKWGGSPPKAINVENPAHQIQYPIPRNEHETTSLQSPGEAPESILYSFDYRHGNYTTTALSRISQDWALKDTVSKITEPDRQQLLKQALECLQISEETQEKKEKEVQQLISNLRQQQQLYRERIISLLKDQ
notes: also called Ring 2 HIS-ORF1; not shown: N-terminal HIS6-tag
Regarding B1, in data set [1], the binding result is on record as “binds”.

B2: untagged Ring2 ORF1 (other)
chain: MPYYYRRRRYNYRRPRWYGRGWIRRPFRRRFRRKRRVRPTYTTIPLKQWQPPYKRTCYIKGQDCLIYYSNLRLGMNSTMYEKSIVPVHWPGGGSFSVSMLTLDALYDIHKLCRNWWTSTNQDLPLVRYKGCKITFYQSTFTDYIVRIHTELPANSNKLTYPNTHPLMMMMSKYKHIIPSRQTRRKKKPYTKIFVKPPPQFENKWYFATDLYKIPLLQIHCTACNLQNPFVKPDKLSNNVTLWSLNTISIQNRNMSVDQGQSWPFKILGTQSFYFYFYTGANLPGDTTQIPVADLLPLTNPRINRPGQSLNEAKITDHITFTEYKNKFTNYWGNPFNKHIQEHLDMILYSLKSPEAIKNEWTTENMKWNQLNNAGTMALTPFNEPIFTQIQYNPDRDTGEDTQLYLLSNATGTGWDPPGIPELILEGFPLWLIYWGFADFQKNLKKVTNIDTNYMLVAKTKFTQKPGTFYLVILNDTFVEGNSPYEKQPLPEDNIKWYPQVQYQLEAQNKLLQTGPFTPNIQGQLSDNISMFYKFYFKWGGSPPKAINVENPAHQIQYPIPRNEHETTSLQSPGEAPESILYSFDYRHGNYTTTALSRISQDWALKDTVSKITEPDRQQLLKQALECLQISEETQEKKEKEVQQLISNLRQQQQLYRERIISLLKDQ
notes: also called LY2 ORF1
With B2, the binding result in data set [2] is recorded as “binds”.

B3: Ring 10 ORF1 delARM delCTD (residues 2-45 and 552-672 deleted) (other)
chain: MKIKRLNIVEWQPKSIRKCRIKGMLCLFQTTEDRLSYNFDMYEESIIPEKLPGGGGFSIKNISLYALYQEHIHAHNIFTHTNTDRPLARYTGCSLKFYQSKDIDYVVTYSTSLPLRSSMGMYNSMQPSIHLMQQNKLIVPSKQTQKRRKPYIKKHISPPTQMKSQWYFQHNIANIPLLMIRTTALTLDNYYIGSRQLSTNVTIHTLNTTYIQNRDWGDRNKTYYCQTLGTQRYFLYGTHSTAQNINDIKLQELIPLTNTQDYVQGFDWTEKDKHNITTYKEFLTKGAGNPFHAEWITAQNPVIHTANSPTQIEQIYTASTTTFQNKKLTDLPTPGYIFITPTVSLRYNPYKDLAERNKCYFVRSKINAHGWDPEQHQELINSDLPQWLLLFGYPDYIKRTQNFALVDTNYILVDHCPYTNPEKTPFIPLSTSFIEGRSPYSPSDTHEPDEEDQNRWYPCYQYQQESINSICLSGPGTPKIPKGITAEAKVKYSFNFKWGGDLPPMST
notes: also called Ring 10 delARM delCTD
In the case of B3, the binding result in data set [1] is reported as “binds”.

B4: Ring 10 ORF1 fused to an N-terminal HIS6-tag (HIS-ORF1) (other)
chain: MPWWYRRRSYNPWRRRNWFRRPRKTIYRRYRRRRRWVRRKPFYKRKIKRLNIVEWQPKSIRKCRIKGMLCLFQTTEDRLSYNFDMYEESIIPEKLPGGGGFSIKNISLYALYQEHIHAHNIFTHTNTDRPLARYTGCSLKFYQSKDIDYVVTYSTSLPLRSSMGMYNSMQPSIHLMQQNKLIVPSKQTQKRRKPYIKKHISPPTQMKSQWYFQHNIANIPLLMIRTTALTLDNYYIGSRQLSTNVTIHTLNTTYIQNRDWGDRNKTYYCQTLGTQRYFLYGTHSTAQNINDIKLQELIPLTNTQDYVQGFDWTEKDKHNITTYKEFLTKGAGNPFHAEWITAQNPVIHTANSPTQIEQIYTASTTTFQNKKLTDLPTPGYIFITPTVSLRYNPYKDLAERNKCYFVRSKINAHGWDPEQHQELINSDLPQWLLLFGYPDYIKRTQNFALVDTNYILVDHCPYTNPEKTPFIPLSTSFIEGRSPYSPSDTHEPDEEDQNRWYPCYQYQQESINSICLSGPGTPKIPKGITAEAKVKYSFNFKWGGDLPPMSTITNPTDQPTYVVPNNFNETTSLQNPTTRPEHFLYSFDERRGQLTEKATKRLLKDWETKETSLLSTEYRFAEPTQTQAPQEDPSSEEEEESNLFERLLRQRTKQLQLKRRIIQTLKDLQKLE
notes: also called Ring 10 HIS-ORF1; not shown: N-terminal HIS6-tag
On to B4, for which, in data set [1], the binding result is listed as “binds”.

B5: full-length Ring 10 ORF1 (residues 1-672) (other)
chain: MPWWYRRRSYNPWRRRNWFRRPRKTIYRRYRRRRRWVRRKPFYKRKIKRLNIVEWQPKSIRKCRIKGMLCLFQTTEDRLSYNFDMYEESIIPEKLPGGGGFSIKNISLYALYQEHIHAHNIFTHTNTDRPLARYTGCSLKFYQSKDIDYVVTYSTSLPLRSSMGMYNSMQPSIHLMQQNKLIVPSKQTQKRRKPYIKKHISPPTQMKSQWYFQHNIANIPLLMIRTTALTLDNYYIGSRQLSTNVTIHTLNTTYIQNRDWGDRNKTYYCQTLGTQRYFLYGTHSTAQNINDIKLQELIPLTNTQDYVQGFDWTEKDKHNITTYKEFLTKGAGNPFHAEWITAQNPVIHTANSPTQIEQIYTASTTTFQNKKLTDLPTPGYIFITPTVSLRYNPYKDLAERNKCYFVRSKINAHGWDPEQHQELINSDLPQWLLLFGYPDYIKRTQNFALVDTNYILVDHCPYTNPEKTPFIPLSTSFIEGRSPYSPSDTHEPDEEDQNRWYPCYQYQQESINSICLSGPGTPKIPKGITAEAKVKYSFNFKWGGDLPPMSTITNPTDQPTYVVPNNFNETTSLQNPTTRPEHFLYSFDERRGQLTEKATKRLLKDWETKETSLLSTEYRFAEPTQTQAPQEDPSSEEEEESNLFERLLRQRTKQLQLKRRIIQTLKDLQKLE
notes: also called Ly1 ORF1; full-length ORF1
Consider B5, for which the binding result in data set [1] is given as “binds”.

B6: Ring2 ORF1 with a deletion of the C-terminus amino acids 611-666 (pRTx-2652), Ring2 AnelloVLP (other)
chain: MPYYYRRRRYNYRRPRWYGRGWIRRPFRRRFRRKRRVRPTYTTIPLKQWQPPYKRTCYIKGQDCLIYYSNLRLGMNSTMYEKSIVPVHWPGGGSFSVSMLTLDALYDIHKLCRNWWTSTNQDLPLVRYKGCKITFYQSTFTDYIVRIHTELPANSNKLTYPNTHPLMMMMSKYKHIIPSRQTRRKKKPYTKIFVKPPPQFENKWYFATDLYKIPLLQIHCTACNLQNPFVKPDKLSNNVTLWSLNTISIQNRNMSVDQGQSWPFKILGTQSFYFYFYTGANLPGDTTQIPVADLLPLTNPRINRPGQSLNEAKITDHITFTEYKNKFTNYWGNPFNKHIQEHLDMILYSLKSPEAIKNEWTTENMKWNQLNNAGTMALTPFNEPIFTQIQYNPDRDTGEDTQLYLLSNATGTGWDPPGIPELILEGFPLWLIYWGFADFQKNLKKVTNIDTNYMLVAKTKFTQKPGTFYLVILNDTFVEGNSPYEKQPLPEDNIKWYPQVQYQLEAQNKLLQTGPFTPNIQGQLSDNISMFYKFYFKWGGSPPKAINVENPAHQIQYPIPRNEHETTSLQSPGEAPESILYSFDYRHGNYTTTALSRISQDWALKDTVSK
notes: also called Ring2 delCterm (Δ611-666) (7047); Ring2 AnelloVLP 2652
For the protein B6, the binding result in data set [3] was “binds”.
